Experimental data published in patent publication US20260241049A1, “Radiopharmaceutical Compositions Targeting Glypican-3 and Uses Thereof” (RayzeBio, Inc., priority 2023, published 2026).
Starred links: 1 amine or outer side, 2 acyl side, 3 side chain; linkers in the order of their positions; H or OH if unused. Positions of bridges follow the written chain, without caps; N, C: chain ends. Non-standard residues stand in square brackets, D forms with d. Groups on a side chain read outwards from the residue. Primed or numbered codes have the meaning given here. F4amCOpipzaa = 2-amino-3-(4-((4-(carboxymethyl)piperazine-1-carboxamido)methyl)phenyl)propanoic acid, O=C(NCc1ccc(C[C@H](N[*:1])C(=O)[*:2])cc1)N1CCN(CC(=O)[*:3])CC1; F4aaopipzaa = 2-amino-3-(4-(2-(4-(carboxymethyl)piperazin-1-yl)-2-oxoethoxy)phenyl)propanoic acid, O=C(COc1ccc(C[C@H](N[*:1])C(=O)[*:2])cc1)N1CCN(CC(=O)[*:3])CC1; F4aao(3) = 4-(carboxymethoxy)-L-phenylalanine ((S)-2-amino-3-(4-(carboxymethoxy)phenyl)propanoic acid), O=C([C@H](Cc1ccc(OCC(=O)[*:3])cc1)N[*:1])[*:2]; MeHseMe(3) = N-methyl-O-methyl-homoserine, 4-methoxy-2-(methylamino)butanoic acid, COCC[C@@H](C(=O)[*:2])N(C)[*:1]; Thr(Me) = O-methyl threonine, (3R)-2-amino-3-methoxybutanoic acid, CO[C@H](C)[C@H](N[*:1])C(=O)[*:2]; F4aao = 4-(carboxymethoxy)-L-phenylalanine, O=C([C@H](Cc1ccc(OCC(=O)[*:3])cc1)N[*:1])[*:2]; DOTA‑Lu″ = DOTA chelate of lutetium (175Lu), attached as an amide to the side-chain amine; MeHseMe(6) = (2S)-4-methoxy-2-(methylamino)butanoic acid, COCC[C@@H](C(=O)[*:2])N(C)[*:1]; MeHseMe = N-methyl-O-methyl-L-homoserine, COCC[C@@H](C(=O)[*:2])N(C)[*:1]; Thr(Me)(3) = TMe, O-methyl-L-threonine, CO[C@H](C)[C@H](N[*:1])C(=O)[*:2]; Phe(4-(1-Me-pyrazol-4-yl)) = Cn1cc(-c2ccc(C[C@H](N)C(=O)O)cc2)cn1; DOTA‑Lu(3) = DOTA chelate with cold lutetium-175, amide-linked; TMe = O-methyl-L-threonine, CO[C@H](C)[C@H](N[*:1])C(=O)[*:2]; NMeAla(isoquinolin-7-yl) = CN[C@@H](Cc1ccc2ccncc2c1)C(=O)O; Phe(4-CH2COOH) = N[C@@H](Cc1ccc(CC(=O)O)cc1)C(=O)O; Phe(4-NHCONH2) = NC(=O)Nc1ccc(C[C@H](N)C(=O)O)cc1; 3Pal(6-Ph) = N[C@@H](Cc1ccc(-c2ccccc2)nc1)C(=O)O; Phe(4-COOH) = N[C@@H](Cc1ccc(C(=O)O)cc1)C(=O)O; NMe2Nal = CN[C@@H](Cc1ccc2ccccc2c1)C(=O)O; NMeI = CC[C@H](C)[C@H](NC)C(=O)O; NMeQ = CN[C@@H](CCC(N)=O)C(=O)O; NMeK = CN[C@@H](CCCCN)C(=O)O; NMeC = CN[C@@H](CS)C(=O)O

B1: Macrocyclic peptide of Example 2-18 (SEQ ID No. 36) (peptide)
peptide: {CH2CO}-[NMeQ][MeHseMe]D[NMeQ][Phe(4-COOH)][Thr(Me)(3)]I[F4aao][NMeAla(isoquinolin-7-yl)]G[Phe(4-(1-Me-pyrazol-4-yl))][NMeC]-NH2
modifications: thioether N-12
SMILES: CC[C@H](C)[C@@H]1NC(=O)[C@H]([C@@H](C)OC)NC(=O)[C@H](Cc2ccc(C(=O)O)cc2)NC(=O)[C@H](CCC(N)=O)N(C)C(=O)[C@H](CC(=O)O)NC(=O)[C@H](CCOC)N(C)C(=O)[C@H](CCC(N)=O)N(C)C(=O)CSC[C@@H](C(N)=O)N(C)C(=O)[C@H](Cc2ccc(-c3cnn(C)c3)cc2)NC(=O)CNC(=O)[C@H](Cc2ccc3ccncc3c2)N(C)C(=O)[C@H](Cc2ccc(OCC(=O)O)cc2)NC1=O
B2: Macrocyclic peptide of Example 2-21 (SEQ ID No. 39) (peptide)
peptide: {CH2CO}-[NMeQ][MeHseMe]D[NMeQ][Phe(4-COOH)][Thr(Me)]I[Phe(4-NHCONH2)][NMe2Nal]G[3Pal(6-Ph)][NMeC]-NH2
modifications: thioether N-12
SMILES: CC[C@H](C)[C@@H]1NC(=O)[C@H]([C@@H](C)OC)NC(=O)[C@H](Cc2ccc(C(=O)O)cc2)NC(=O)[C@H](CCC(N)=O)N(C)C(=O)[C@H](CC(=O)O)NC(=O)[C@H](CCOC)N(C)C(=O)[C@H](CCC(N)=O)N(C)C(=O)CSC[C@@H](C(N)=O)N(C)C(=O)[C@H](Cc2ccc(-c3ccccc3)nc2)NC(=O)CNC(=O)[C@H](Cc2ccc3ccccc3c2)N(C)C(=O)[C@H](Cc2ccc(NC(N)=O)cc2)NC1=O
B3: Macrocyclic peptide of Example 2-20 (SEQ ID No. 38) (peptide)
peptide: {CH2CO}-[NMeQ][MeHseMe]D[NMeQ][Phe(4-COOH)][Thr(Me)]I[F4amCOpipzaa][NMe2Nal]G[3Pal(6-Ph)][NMeC]-NH2
modifications: thioether N-12
SMILES: CC[C@H](C)[C@@H]1NC(=O)[C@H]([C@@H](C)OC)NC(=O)[C@H](Cc2ccc(C(=O)O)cc2)NC(=O)[C@H](CCC(N)=O)N(C)C(=O)[C@H](CC(=O)O)NC(=O)[C@H](CCOC)N(C)C(=O)[C@H](CCC(N)=O)N(C)C(=O)CSC[C@@H](C(N)=O)N(C)C(=O)[C@H](Cc2ccc(-c3ccccc3)nc2)NC(=O)CNC(=O)[C@H](Cc2ccc3ccccc3c2)N(C)C(=O)[C@H](Cc2ccc(CNC(=O)N3CCN(CC(=O)O)CC3)cc2)NC1=O
B4: Macrocyclic peptide of Example 2-22 (SEQ ID No. 40) (peptide)
peptide: {CH2CO}-[NMeQ][MeHseMe]D[NMeQ][Phe(4-COOH)][Thr(Me)(3)]I[F4aaopipzaa][NMe2Nal]G[3Pal(6-Ph)][NMeC]-NH2
modifications: thioether N-12
SMILES: CC[C@H](C)[C@@H]1NC(=O)[C@H]([C@@H](C)OC)NC(=O)[C@H](Cc2ccc(C(=O)O)cc2)NC(=O)[C@H](CCC(N)=O)N(C)C(=O)[C@H](CC(=O)O)NC(=O)[C@H](CCOC)N(C)C(=O)[C@H](CCC(N)=O)N(C)C(=O)CSC[C@@H](C(N)=O)N(C)C(=O)[C@H](Cc2ccc(-c3ccccc3)nc2)NC(=O)CNC(=O)[C@H](Cc2ccc3ccccc3c2)N(C)C(=O)[C@H](Cc2ccc(OCC(=O)N3CCN(CC(=O)O)CC3)cc2)NC1=O

Each binder was assayed against T1, Human Glypican3-Fc (ACRO Biosystems, GP3-H5258) (human, UniProt P51654 25-559) (assay: SPR (Biacore T200), Method B-2: human Glypican3-Fc captured by anti-human Fc on CM3 chip, peptide as analyte).
T1 construct: Bought fusion protein, captured in Methods B-2, B-3 and B-4; Catalogue number is printed only in Method B-2; not shown: Fc part of the bought fusion
Experimental: A CM3 sensor chip (Cytiva) was inserted into a Biacore T200 (Cytiva), primed three times with a running buffer: HBS-P-+, pH 7.4 (Cytiva), and equilibrated at a flow rate of 30 μL/min. Using the Anti-Fc Capture Kit (Cytiva), 50 LL each of 60 mM EDC solution (Cytiva) and 650 mM NHS solution (Cytiva) were mixed, and then reacted at a flow rate of 10 μL/min for 420 seconds, 150 μL of […] Anti-human IgG (Fc) Antibody solution was prepared by diluting with 10 mM acetic acid solution (pH 5.0), reacted at a flow rate of 10 μL/min for 420 seconds, and immobilized on a CM3 sensor chip. After immobilization, 1.0 M ethanolamine aqueous solution (Cytiva) was allowed to react for 420 seconds at a flow rate of 10 μL/min for capping. Human Glypican3-Fc (ACRO Biosystems, GP3-H5258) was allowed to react for 60 seconds at a flow rate of 10 μL/min. After capturing human Glypican3-Fc, a peptide solution prepared to 10 mM in DMSO solution was diluted with a running buffer to a final concentration of 10 μM. […] Using the above samples, peptide kinetics for Glypican3 was obtained by SPR measurement. Kinetics evaluation of Glypican3 was performed by SPR measurements at a flow rate of 10 μL/min. setting the association time to 120 seconds and the disassociation time to 600 seconds.
The obtained data by Method B-1, Method B-2, Method B-3 and Method B-4 were analyzed by follow. Single Cycle Kinetics was used as the kinetics evaluation model, and curve fitting was performed using Biacore T200 Evaluation Software Version 3.0 (Cytiva).
B1 gave a Kd of 3800 pM.
{CH2CO}-[NMeK](DOTA‑Lu″)[MeHseMe(3)]D[NMeQ][Phe(4-COOH)]II[Phe(4-CH2COOH)][NMe2Nal]G[Phe(4-(1-Me-pyrazol-4-yl))][NMeC]-NH2 (thioether N-12) [Lu-C-22] gave a Kd of 1990 pM.
Work on {CH2CO}-[NMeK]([dE-DOTA‑Lu(3)])[NMeI]D[NMeQ][Phe(4-COOH)]II[F4aao(3)][NMeAla(isoquinolin-7-yl)]G[3Pal(6-Ph)][NMeC]-NH2 (thioether N-12) [Lu-C-33] yielded a Kd of 870 pM.
Ac-[NMeK](DOTA‑Lu(3))[MeHseMe(6)]D[NMeQ][Phe(4-COOH)][TMe]IY[NMeAla(isoquinolin-7-yl)]G[3Pal(6-Ph)][NMeC]-NH2 (bridge N-12; not fully specified (bridges); also: cold Lu-175 chelated by DOTA) [Lu-C-45] gave a Kd of 740 pM.
Binder B2 has a Kd of 400 pM.
Binder B3 has a Kd of 700 pM.
B4 gave a Kd of 800 pM.
